6 sequences from the supplement of paper PMC5998384 can be followed below.

In data set [1] the test system is HeLa Kyoto. Briefly: solubility change mitosis vs G1/S (difference of NP-40 vs SDS log2 ratios) (log2 ratio difference); higher = more soluble in mitosis.
The test system of data set [2] is HeLa Kyoto. As to the kind of experiment: thermal stability score vs G1/S (z-score of summed log2 fold changes over temperatures); higher = more thermally stable than in G1/S.
In data set [3] the test system is HeLa Kyoto. As to the kind of experiment: solubility in G1/S (NP-40 vs SDS abundance) (log2 ratio); higher = more soluble. The note with it: cell cycle stage: G1/S.
In data set [4] the test system is HeLa Kyoto. Briefly: melting temperature (median over replicates), in situ; higher = more thermally stable.
Setting [5] is: cell cycle stage: early G1 (4.5 h after nocodazole release).
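Wherever melting temperature (median over replicates), in situ is given: HeLa Kyoto cells synchronized by double thymidine or nocodazole block, proteins quantified by TMT10plex mass spectrometry, three independent biological replicates.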
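Wherever solubility change mitosis vs G1/S (difference of NP-40 vs SDS log2 ratios) is given: synchronized HeLa Kyoto cells (double thymidine block for G1/S, nocodazole release for mitosis), protein amounts in NP-40 versus SDS lysates quantified by mass spectrometry, three biological replicates.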
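Wherever solubility in G1/S (NP-40 vs SDS abundance) is given: HeLa Kyoto cells arrested at G1/S by double thymidine block, proteins quantified by TMT10plex mass spectrometry in mild NP-40 versus SDS extracts, three biological replicates.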
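Wherever thermal stability score vs G1/S (z-score of summed log2 fold changes over temperatures) is given: synchronized HeLa Kyoto cells, proteins quantified by TMT10plex mass spectrometry, three biological replicates, mitosis taken 0.5 h after nocodazole release, G1/S directly after double thymidine block.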

In the case of “MDGLLNPRESSKFIAENSRDVFIDSGGVRRVAELLLAKAAGPELRVEGWKALHELNPRAADEAAVNWVFVTDTLNFSFWSEQDEHKCVVRYRGKTYSGYWSLCAAVNRALDEGIPITSASYYATVTLDQVRNILRSDTDVSMPLVEERHRILNETGKILLEKFGGSFLNCVRESENSAQKLMHLVVESFPSYRDVTLFEGKRVSFYKRAQILVADTWSVLEGKGDGCFKDISSITMFADYRLPQVLAHLGALKYSDDLLKKLLKGEMLSYGDRQEVEIRGCSLWCVELIRDCLLELIEQKGEKPNGEINSILLDYYLWDYAHDHREDMKGIPFHRIRCIYY [C9ORF64]”, the “solubility change mitosis (log2)” value in the data set with HeLa Kyoto [1] is -0.283. Besides, the results for the thermal stability score with HeLa Kyoto [2] (setting [5]) and in the data set on HeLa Kyoto [2] (cell cycle stage: mitosis) were -1.65 and 0.153, respectively. Further, the “solubility in G1/S (log2)” value in the data set on HeLa Kyoto [3] was -0.318. In addition, the results for the melting temperature in the data set with HeLa Kyoto [4] (cell cycle stage: G1/S) and in the data set on HeLa Kyoto [4] (cell cycle stage: mitosis) were 50.2 °C and 49.7 °C, respectively.

As for “MDGTRTSLDIEEYSDTEVQKNQVLTLEEWQDKWVNGKTAFHQEQGHQLLKKHLDTFLKGKSGLRVFFPLCGKAVEMKWFADRGHSVVGVEISELGIQEFFTEQNLSYSEEPITEIPGTKVFKSSSGNISLYCCSIFDLPRTNIGKFDMIWDRGALVAINPGDRKCYADTMFSLLGKKFQYLLCVLSYDPTKHPGPPFYVPHAEIERLFGKICNIRCLEKVDAFEERHKSWGIDCLFEKLYLLTEK [TPMT]”, the “solubility change mitosis (log2)” value with HeLa Kyoto [1] is -0.18. Also, the thermal stability score is -0.85 in the data set with HeLa Kyoto [2] (setting [5]) and -0.417 in the data set with HeLa Kyoto [2] (cell cycle stage: mitosis). The “solubility in G1/S (log2)” value in the data set with HeLa Kyoto [3] is 0.0374. Also, the melting temperature in the data set on HeLa Kyoto [4] (cell cycle stage: G1/S) and in the data set on HeLa Kyoto [4] (cell cycle stage: mitosis) was 54 °C each time.

Turning to “MDKLKKVLSGQDTEDRSGLSEVVEASSLSWSTRIKGFIACFAIGILCSLLGTVLLWVPRKGLHLFAVFYTFGNIASIGSTIFLMGPVKQLKRMFEPTRLIATIMVLLCFALTLCSAFWWHNKGLALIFCILQSLALTWYSLSFIPFARDAVKKCFAVCLA [SFT2D2]”, the “solubility change mitosis (log2)” value with HeLa Kyoto [1] was 0.0654. Further, the thermal stability score in the data set on HeLa Kyoto [2] (setting [5]) is -0.835; with HeLa Kyoto [2] (cell cycle stage: mitosis) it was -0.774. In addition, the “solubility in G1/S (log2)” value in the data set on HeLa Kyoto [3] is 0.0285. The melting temperature in the data set on HeLa Kyoto [4] (cell cycle stage: G1/S) was found to be 57.4 °C; in the data set with HeLa Kyoto [4] (cell cycle stage: mitosis), 61.1 °C.

Regarding “MDKNELVQKAKLAEQAERYDDMAACMKSVTEQGAELSNEERNLLSVAYKNVVGARRSSWRVVSSIEQKTEGAEKKQQMAREYREKIETELRDICNDVLSLLEKFLIPNASQAESKVFYLKMKGDYYRYLAEVAAGDDKKGIVDQSQQAYQEAFEISKKEMQPTHPIRLGLALNFSVFYYEILNSPEKACSLAKTAFDEAIAELDTLSEESYKDSTLIMQLLRDNLTLWTSDTQGDEAEAGEGGEN [YWHAZ]”, the “solubility change mitosis (log2)” value in the data set with HeLa Kyoto [1] is 0.346. In addition, the thermal stability score in the data set on HeLa Kyoto [2] (setting [5]) is -3.76; in the data set on HeLa Kyoto [2] (cell cycle stage: mitosis), -3.47. Moreover, in the data set with HeLa Kyoto [3], the “solubility in G1/S (log2)” value was 0.359. Besides, the melting temperature in the data set with HeLa Kyoto [4] (cell cycle stage: G1/S) was found to be 54.9 °C; in the data set with HeLa Kyoto [4] (cell cycle stage: mitosis) it was 54.8 °C.

For “MDLLPPKPKYNPLRNESLSSLEEGASGSTPPEELPSPSASSLGPILPPLPGDDSPTTLCSFFPRMSNLRLANPAGGRPGSKGEPGRAADDGEGIVGAAMPDSGPLPLLQDMNKLSGGGGRRTRVEGGQLGGEEWTRHGSFVNKPTRGWLHPNDKVMGPGVSYLVRYMGCVEVLQSMRALDFNTRTQVTREAISLVCEAVPGAKGATRRRKPCSRPLSSILGRSNLKFAGMPITLTVSTSSLNLMAADCKQIIANHHMQSISFASGGDPDTAEYVAYVAKDPVNQRACHILECPEGLAQDVISTIGQAFELRFKQYLRNPPKLVTPHDRMAGFDGSAWDEEEEEPPDHQYYNDFPGKEPPLGGVVDMRLREGAAPGAARPTAPNAQTPSHLGATLPVGQPVGGDPEVRKQMPPPPPCPGRELFDDPSYVNVQNLDKARQAVGGAGPPNPAINGSAPRDLFDMKPFEDALRVPPPPQSVSMAEQLRGEPWFHGKLSRREAEALLQLNGDFLVRESTTTPGQYVLTGLQSGQPKHLLLVDPEGVVRTKDHRFESVSHLISYHMDNHLPIISAGSELCLQQPVERKL [SHC1]”, in the data set on HeLa Kyoto [1], the “solubility change mitosis (log2)” value was -0.067. The thermal stability score is -1.86 in the data set on HeLa Kyoto [2] (setting [5]) and -2.06 in the data set with HeLa Kyoto [2] (cell cycle stage: mitosis). In the data set on HeLa Kyoto [3], the “solubility in G1/S (log2)” value was 0.307. Moreover, the results for the melting temperature in the data set on HeLa Kyoto [4] (cell cycle stage: G1/S) and in the data set with HeLa Kyoto [4] (cell cycle stage: mitosis) were 52.5 °C and 52.9 °C, respectively.

Take “MDLMNGQASSVNIAATASEKSSSSESLSDKGSELKKSFDAVVFDVLKVTPEEYAGQITLMDVPVFKAIQPDELSSCGWNKKEKYSSAPNAVAFTRRFNHVSFWVVREILHAQTLKIRAEVLSHYIKTAKKLYELNNLHALMAVVSGLQSAPIFRLTKTWALLSRKDKTTFEKLEYVMSKEDNYKRLRDYISSLKMTPCIPYLGIYLSDLTYIDSAYPSTGSILENEQRSNLMNNILRIISDLQQSCEYDIPMLPHVQKYLNSVQYIEELQKFVEDDNYKLSLKIEPGTSTPRSAASREDLVGPEVGASPQSGRKSVAAEGALLPQTPPSPRNLIPHGHRKCHSLGYNFIHKMNTAEFKSATFPNAGPRHLLDDSVMEPHAPSRGQAESSTLSSGISIGSSDGSELSEETSWPAFERNRLYHSLGPVTRVARNGYRSHMKASSSAESEDLAVHLYPGAVTIQGVLRRKTLLKEGKKPTVASWTKYWAALCGTQLFYYAAKSLKATERKHFKSTSNKNVSVIGWMVMMADDPEHPDLFLLTDSEKGNSYKFQAGNRMNAMLWFKHLSAACQSNKQQVPTNLMTFE [RALGPS2]”: the “solubility change mitosis (log2)” value with HeLa Kyoto [1] is -0.165. For the same sequence, the thermal stability score with HeLa Kyoto [2] (setting [5]) was -0.455; with HeLa Kyoto [2] (cell cycle stage: mitosis), -0.819. The “solubility in G1/S (log2)” value in the data set with HeLa Kyoto [3] was determined as 0.0658. The figures for the melting temperature in the data set on HeLa Kyoto [4] (cell cycle stage: G1/S) and with HeLa Kyoto [4] (cell cycle stage: mitosis) were 51 °C and 50.5 °C, respectively.
